# Data reported in patent US20260008815A1, “CYCLIC PEPTIDE OR SALT THEREOF, AND USES THEREOF” (FUJIFILM Corporation, priority 2023, published 2026).
# Bridge positions count the residues as written; N and C are the ends. Ends that are not written are not given here. COCH2 = acetyl group that carries the bridge
# Molecular target: T1, Recombinant Human FGFR2 alpha (IIIc) Fc Chimera Protein, CF (R&D systems, 712-FR-050) (human, UniProt P21802 22-377)
# T1 construct: bought; not shown: Fc part of the chimera
# T1 sequence (P21802 22-377, change not shown): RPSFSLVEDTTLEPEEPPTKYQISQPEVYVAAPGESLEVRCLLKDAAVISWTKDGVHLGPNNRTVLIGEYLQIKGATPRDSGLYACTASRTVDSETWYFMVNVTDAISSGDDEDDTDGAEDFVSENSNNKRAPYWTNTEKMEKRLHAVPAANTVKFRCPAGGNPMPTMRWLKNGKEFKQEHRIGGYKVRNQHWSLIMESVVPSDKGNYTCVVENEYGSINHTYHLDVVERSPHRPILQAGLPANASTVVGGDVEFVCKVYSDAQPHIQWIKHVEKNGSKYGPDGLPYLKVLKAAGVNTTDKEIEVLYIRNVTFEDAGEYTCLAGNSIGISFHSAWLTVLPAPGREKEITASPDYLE
# Test: ELISA on plate-bound FGFR2-Fc
# Experimental: First, 5 ng of Recombinant Human FGFR2 alpha (IIIc) Fc Chimera Protein (R&D systems, 712-FR-050) was immobilized in each well of a 96-well plate, and blocked with Pierce Protein-Free (PBS) Blocking Buffer (Thermo, 37572), and a peptide diluted with Can Get Signal Immunoreaction Enhancer Solution I (TOYOBO, NKB-101) was then added and reacted at room temperature for 3 hours. After washing with 0.05% Tween 20-containing phosphate buffered saline (PBS), an anti-Myc antibody (Cell Signaling, 14038S) diluted with Can Get Signal Immunoreaction Enhancer Solution II (TOYOBO, NKB-101) was added and reacted at room temperature for 2 hours. After washing with 0.05% Tween 20-containing PBS, SuperSignal ELISA Femto Substrate (Thermo, 37075) was added, and the luminescence amount was measured. The dose-response relationship was calculated from using the difference between the luminescence amount in the well in which FGFR was immobilized and the luminescence amount in the well in which FGFR was not immobilized, and the concentration of the peptide at the time of reaction, and the binding affinity to FGFR was evaluated according to the following evaluation criteria. The evaluation result preferably satisfies the evaluation criteria A, B, or C.
row,"ELISA luminescence signal at 10 nmol/L peptide, relative to SEQ ID NO: 47 (=1) [ratio]",Binder
1,0.1 to 0.5,QCTYLAQYLVERYHLTK(COCH2)T (thioether 2-17) [cyclic peptide SEQ ID NO: 135]
2,≥ 0.7,SCEENYLDPEQYQYFIYFK(COCH2)Y (thioether 2-19) [cyclic peptide SEQ ID NO: 145]
3,≥ 0.7,RCEENYLDPEQYQYFIYFK(COCH2)Y (thioether 2-19) [cyclic peptide SEQ ID NO: 149]
4,≥ 0.7,YCNENYLDPEQYQYFIYFK(COCH2)Y (thioether 2-19) [cyclic peptide SEQ ID NO: 159]
5,≥ 0.7,YCLENYLDPEQYQYFIYFK(COCH2)Y (thioether 2-19) [cyclic peptide SEQ ID NO: 153]
6,≥ 0.7,YCQENYLDPEQYQYFIYFK(COCH2)Y (thioether 2-19) [cyclic peptide SEQ ID NO: 160]
7,≥ 0.7,NCEENYLDPEQYQYFIYFK(COCH2)Y (thioether 2-19) [cyclic peptide SEQ ID NO: 143]
8,≥ 0.7,YCELNYLDPEQYQYFIYFK(COCH2)Y (thioether 2-19) [cyclic peptide SEQ ID NO: 168]
9,≥ 0.7,YCEYNYLDPEQYQYFIYFK(COCH2)Y (thioether 2-19 (inferred)) [cyclic peptide SEQ ID NO: 172]
10,≥ 0.7,YCIENYLDPEQYQYFIYFK(COCH2)Y (thioether 2-19) [cyclic peptide SEQ ID NO: 154]
11,≥ 0.7,YCENNYLDPEQYQYFIYFK(COCH2)Y (thioether 2-19 (inferred)) [cyclic peptide SEQ ID NO: 174]
12,≥ 0.7,YCEPNYLDPEQYQYFIYFK(COCH2)Y (thioether 2-19) [cyclic peptide SEQ ID NO: 167]
13,≥ 0.7,YCVENYLDPEQYQYFIYFK(COCH2)Y (thioether 2-19) [cyclic peptide SEQ ID NO: 155]
14,0.1 to 0.5,LCADQYDYLLQYVFWRTYK(COCH2)I (thioether 2-19) [cyclic peptide SEQ ID NO: 134]

# Further lines, the binder ahead of its results:
row,Binder,"ELISA luminescence signal at 10 nmol/L peptide, relative to SEQ ID NO: 47 (=1) [ratio]"
1,YCEENYLDPEQYQYFIYFK(COCH2)Y (thioether 2-19) [cyclic peptide SEQ ID NO: 131],≥ 0.7
2,YCEWNYLDPEQYQYFIYFK(COCH2)Y (thioether 2-19 (inferred)) [cyclic peptide SEQ ID NO: 173],≥ 0.7
3,YCHENYLDPEQYQYFIYFK(COCH2)Y (thioether 2-19) [cyclic peptide SEQ ID NO: 165],≥ 0.7
4,ECEENYLDPEQYQYFIYFK(COCH2)Y (thioether 2-19) [cyclic peptide SEQ ID NO: 148],≥ 0.7
5,YCEINYLDPEQYQYFIYFK(COCH2)Y (thioether 2-19) [cyclic peptide SEQ ID NO: 169],≥ 0.7
6,PCEENYLDPEQYQYFIYFK(COCH2)Y (thioether 2-19) [cyclic peptide SEQ ID NO: 137],≥ 0.7
7,HCEENYLDPEQYQYFIYFK(COCH2)Y (thioether 2-19) [cyclic peptide SEQ ID NO: 150],≥ 0.7
8,TCEENYLDPEQYQYFIYFK(COCH2)Y (thioether 2-19) [cyclic peptide SEQ ID NO: 146],≥ 0.7
9,QCEENYLDPEQYQYFIYFK(COCH2)Y (thioether 2-19) [cyclic peptide SEQ ID NO: 144],≥ 0.7
10,ICEENYLDPEQYQYFIYFK(COCH2)Y (thioether 2-19) [cyclic peptide SEQ ID NO: 139],≥ 0.7
11,WCEENYLDPEQYQYFIYFK(COCH2)Y (thioether 2-19) [cyclic peptide SEQ ID NO: 142],≥ 0.7
12,YCYENYLDPEQYQYFIYFK(COCH2)Y (thioether 2-19) [cyclic peptide SEQ ID NO: 157],≥ 0.7
13,YCEVNYLDPEQYQYFIYFK(COCH2)Y (thioether 2-19) [cyclic peptide SEQ ID NO: 170],≥ 0.7
14,YCRENYLDPEQYQYFIYFK(COCH2)Y (thioether 2-19) [cyclic peptide SEQ ID NO: 164],≥ 0.7
15,YCGENYLDPEQYQYFIYFK(COCH2)Y (thioether 2-19) [cyclic peptide SEQ ID NO: 151],≥ 0.7
16,LCEENYLDPEQYQYFIYFK(COCH2)Y (thioether 2-19) [cyclic peptide SEQ ID NO: 138],≥ 0.7
17,GCEENYLDPEQYQYFIYFK(COCH2)Y (thioether 2-19) [cyclic peptide SEQ ID NO: 136],≥ 0.7
18,YCEGNYLDPEQYQYFIYFK(COCH2)Y (thioether 2-19) [cyclic peptide SEQ ID NO: 166],≥ 0.7
19,YCPENYLDPEQYQYFIYFK(COCH2)Y (thioether 2-19) [cyclic peptide SEQ ID NO: 152],≥ 0.7
20,YCFENYLDPEQYQYFIYFK(COCH2)Y (thioether 2-19) [cyclic peptide SEQ ID NO: 156],≥ 0.7
21,DCEENYLDPEQYQYFIYFK(COCH2)Y (thioether 2-19) [cyclic peptide SEQ ID NO: 147],≥ 0.7
22,YCSENYLDPEQYQYFIYFK(COCH2)Y (thioether 2-19) [cyclic peptide SEQ ID NO: 161],≥ 0.7
23,VCEENYLDPEQYQYFIYFK(COCH2)Y (thioether 2-19) [cyclic peptide SEQ ID NO: 140],≥ 0.7
24,YCEFNYLDPEQYQYFIYFK(COCH2)Y (thioether 2-19 (inferred)) [cyclic peptide SEQ ID NO: 171],0.5 to 0.7
25,YCDENYLDPEQYQYFIYFK(COCH2)Y (thioether 2-19) [cyclic peptide SEQ ID NO: 163],≥ 0.7
26,YCTENYLDPEQYQYFIYFK(COCH2)Y (thioether 2-19) [cyclic peptide SEQ ID NO: 162],≥ 0.7
27,FCEENYLDPEQYQYFIYFK(COCH2)Y (thioether 2-19) [cyclic peptide SEQ ID NO: 141],≥ 0.7
28,YCWENYLDPEQYQYFIYFK(COCH2)Y (thioether 2-19) [cyclic peptide SEQ ID NO: 158],≥ 0.7
29,ECLGNYFSHEQYQYLLQYK(COCH2)I (thioether 2-19) [cyclic peptide SEQ ID NO: 133],≥ 0.7
30,HCNANFVYQQQYLYLLQYK(COCH2)L (thioether 2-19 (inferred)) [cyclic peptide SEQ ID NO: 43],0.5 to 0.7
